Earlier results in publication PMC6615252, “The binding affinity of PTPN13’s tandem PDZ2/3 domain is allosterically modulated” (BMC Molecular and Cell Biology, 2019).

Tested on: PDZ4 domain of PTPN13
Conditions: ref [39]; cited from earlier work
Source text: This might also explain as to why the observed in vitro affinities of PTPN13 for APC and PRK2 are low in comparison to known examples for PDZ-ligand interactions.

B1: PARG1: RhoGAP protein PARG1 (protein, UniProt Q52LW3 1-1261, looked up)
Rho GTPase-activating protein …: MIAHKQKKTKKKRAWASGQLSTDITTSEMGLKSLSSNSIFDPDYIKELVNDIRKFSHMLLYLKEAIFSDCFKEVIHIRLEELLRVLKSIMNKHQNLNSVDLQNAAEMLTAKVKAVNFTEVNEENKNDLFQEVFSSIETLAFTFGNILTNFLMGDVGNDSLLRLPVSRETKSFENVSVESVDSSSEKGNFSPLELDNVLLKNTDSIELALSYAKTWSKYTKNIVSWVEKKLNLELESTRNMVKLAEATRTNIGIQEFMPLQSLFTNALLNDIESSHLLQQTIAALQANKFVQPLLGRKNEMEKQRKEIKELWKQEQNKMLEAENALKKAKLLCMQRQDEYEKAKSSMFRAEEEHLSSSGGLAKNLNKQLEKKRRLEEEALQKVEEANELYKVCVTNVEERRNDLENTKREILAQLRTLVFQCDLTLKAVTVNLFHMQHLQAASLADSLQSLCDSAKLYDPGQEYSEFVKATNSTEEEKVDGNVNKHLNSSQPSGFGPANSLEDVVRLPDSSNKIEEDRCSNSADITGPSFIRSWTFGMFSDSESTGGSSESRSLDSESISPGDFHRKLPRTPSSGTMSSADDLDEREPPSPSETGPNSLGTFKKTLMSKAALTHKFRKLRSPTKCRDCEGIVVFQGVECEECLLVCHRKCLENLVIICGHQKLPGKIHLFGAEFTQVAKKEPDGIPFILKICASEIENRALCLQGIYRVCGNKIKTEKLCQALENGMHLVDISEFSSHDICDVLKLYLRQLPEPFILFRLYKEFIDLAKEIQHVNEEQETKKNSLEDKKWPNMCIEINRILLKSKDLLRQLPASNFNSLHFLIVHLKRVVDHAEENKMNSKNLGVIFGPSLIRPRPTTAPITISSLAEYSNQARLVEFLITYSQKIFDGSLQPQDVMCSIGVVDQGCFPKPLLSPEERDIERSMKSLFFSSKEDIHTSESESKIFERATSFEESERKQNALGKCDACLSDKAQLLLDQEAESASQKIEDGKTPKPLSLKSDRSTNNVERHTPRTKIRPVSLPVDRLLLASPPNERNGRNMGNVNLDKFCKNPAFEGVNRKDAATTVCSKFNGFDQQTLQKIQDKQYEQNSLTAKTTMIMPSALQEKGVTTSLQISGDHSINATQPSKPYAEPVRSVREASERRSSDSYPLAPVRAPRTLQPQHWTTFYKPHAPIISIRGNEEKPASPSAAVPPGTDHDPHGLVVKSMPDPDKASACPGQATGQPKEDSEELGLPDVNPMCQRPRLKRMQQFEDLEGEIPQFV
  binding to PDZ4 domain: binds
